Experiments:
Assay in all cases: cryo-EM structure
[1] = molecular target: ConSOSL.UFO soluble gp140 Env trimer, unmodified (GMP) (HIV-1 (group M consensus))
[2] = molecular target: EDC cross-linked ConSOSL.UFO soluble gp140 Env trimer (GMP) (HIV-1 (group M consensus))
[3] = molecular target: ConM SOSIP soluble gp140 Env trimer, unmodified (GMP) (HIV-1 (group M consensus))
[4] = molecular target: EDC cross-linked ConM SOSIP soluble gp140 Env trimer (GMP) (HIV-1 (group M consensus))

With “ConSOSL.UFO soluble gp140 Env trimer, unmodified (GMP) (complex)” the stoichiometry N [1] was 3.
Substance “EDC cross-linked ConSOSL.UFO soluble gp140 Env trimer (GMP) (complex)” has a stoichiometry N [2] of 3.
“ConM SOSIP soluble gp140 Env trimer, unmodified (GMP) (complex)” showed a stoichiometry N [3] of 3.
With “EDC cross-linked ConM SOSIP soluble gp140 Env trimer (GMP) (complex)” the stoichiometry N [4] was 3.

Reference: paper PMC10345191
